# Results: PMC11573500
# “And” between values parts separate entries of the source, which are not always exact repeats. Identical values can stand only once.
# Assays:
# [1] = target: phosphorylated human CFTR E1371Q (human) (UniProt P13569); assay: cryo-EM structure; phosphorylated E1371Q CFTR (~5 mg/mL) in digitonin with PKA-C (~10 mg/mL), 3 mM ATP/Mg2+; 200 mM NaCl, 20 mM HEPES pH 7.4, 1 mM DTT
# [2] = target: dephosphorylated wild-type human CFTR (human) (UniProt P13569); assay: cryo-EM structure; 30 uM dephosphorylated wild-type CFTR in digitonin, 250 uM bPKA-C, 2 mM AMP-PNP/Mg2+; 200 mM NaCl, 20 mM HEPES pH 7.4, 1 mM DTT
# [3] = target: CFTR D58A expressed in Xenopus laevis oocytes (human) (UniProt P13569)
# [4] = target: CFTR E51A expressed in Xenopus laevis oocytes (human) (UniProt P13569)
# [5] = target: CFTR D47A expressed in Xenopus laevis oocytes (human) (UniProt P13569)
# [6] = target: dephosphorylated human CFTR E1371Q (human) (UniProt P13569); assay: cryo-EM structure; 30 uM dephosphorylated E1371Q CFTR in digitonin, 250 uM bovine PKA-C, 1 mM P-ATP/Mg2+ and 1 mM AMP-PNP/Mg2+; 200 mM NaCl, 20 mM HEPES pH 7.4, 1 mM DTT
# [7] = target: WT CFTR expressed in Xenopus laevis oocytes (human) (UniProt P13569)
stoichiometry N (PKA-C per CFTR) [1],stoichiometry N (PKA-C per CFTR) [2],"half-time (t1/2) of macroscopic current activation by 300 nM bPKA-C in 2 mM ATP, relative to WT CFTR [3]","half-time (t1/2) of macroscopic current activation by 300 nM bPKA-C in 2 mM ATP, relative to WT CFTR [4]","half-time (t1/2) of macroscopic current activation by 300 nM bPKA-C in 2 mM ATP, relative to WT CFTR [5]",stoichiometry N (PKA-C per CFTR) [6],"half-time (t1/2) of current activation by 300 nM rPKA-C in 2 mM ATP, relative to 300 nM bPKA-C on WT CFTR [7]",Substance
1,1 and 2,2 fold,2 fold,2 fold,1,–,protein kinase A catalytic subunit purified from bovine heart (from UniProt P00517 1-351) (enzyme)
–,–,–,–,–,–,6 fold,"recombinant bovine PKA-C, wild type (from UniProt P00517 1-351) (enzyme)"
